The nature of the series: soluble on expression in E. coli; label from the status in PepcDB or PDB records.
Take “MTARARSALLDAEHIVGYTTYVELLPDEITEGADDIYNTPMCGEVSRTEEAIDRALAGNDVAIIGSGDPNVYALAGLALEIIESKGATATMLDFDVVPGVP”: the “soluble on expression in E. coli” value is recorded as “not soluble”.

As to “MSQANLSETLFKPRFKHPETSTLVRRFSAGKPQAMQSALSGNHVDHWYRLINRLMWIWRGVTPQEILDVQARIVMSEAERTDPELFDTVIGYRGGNWIFEWAKEAMQWQQKAGQEADPLLSGRHWLHASNLYSIAAYPHIKGDELAEQAQALANRAYEEAAQRLPGSLRELEFTIPGGSPITGFLHMPKGEGPFPTVLMCGGLDSLQTDYYNLYENYFSPLGIAMLTIDMPSIGFSSKWTLNQDTSLLHQHALRHLENVPWIDHTRVAAFGFRFGANIAVRLGYLEPQRLKAVACLGPVVHGLLVDPLHQGRVPEMYLDVLASRLGMHDASDEALRVELNRYSLKTQGLLGRRCPTPMLSGFWKDDPFSPEEESRLITSSSADGKLLEIPFNPVYRNFDHALRQIARWINHRFG”, the “soluble on expression in E. coli” value was “not soluble”.

“MLMATMTPWYLYLIRTADNALYTGITTDVARRYRQHQTGKGAKALRGKGELTLAFAAQVGDRSLALRIEYRIKQLTKRQKERLVTEREAFEALLSSLQTPVLKND”: the “soluble on expression in E. coli” value was “not soluble”.

In the case of “MAMNLPADNEGKIKLAMSILVTIINDTGVPRNIRRAAANALTHLRDPRLSPAVRAANAISALEEVSQDPNMPFYARTRIWQVITILETVRD”, the “soluble on expression in E. coli” value was “not soluble”.

Turning to “MSKPIQMERGVKYRDADKMALIPIKNMPTEQKEVLRKPEWMKIKLPADSQRIQDIKAAMRKNNLHSVCEEASCPNLAECFNHGTATFMILGAICTRRCPFCDVAHGRPNAPEAEEPKKLAQTIHDMKLKYVVITSVDRDDLRDGGAQHFADCNREIRALNPHIKIETLVPDFRGRMEVALEALKDNPPDVFNHNLETAPRLYRKVRPGANYKWSLELLRQFKEQHPHVPTKSGLMMGLGETKEEIVEVLKDLRAHGVTMLTLGQYLAPSRHHLPVERYVPPAEFDELKEVALELGFTHAACGPFVRSSYHADLQAKGLEVK”, the “soluble on expression in E. coli” value is listed as “not soluble”.

“HAIFERHENDLHCEVPISFATAALGGSIEVPTLEGRVTLKIPAETQTGKVFRLRSKGMKSVRGYGQGDLLCKVVVETPVNLSREQKELLNKLQDSLENAKGTH”: the “soluble on expression in E. coli” value is reported as “not soluble”.

For the sequence “MAEHGETQADEEEEEQVWSWGAGTDGQLGTTKLQDELLPQLLSLTSLPSISMLACGGAHVIALTSGGKVFTWGRGSSGQLGHGDILNITLPKLVSFFDDSVITQAAAGWSHSGFVSDSGCIFTCGNGSFGQLGHGDTLSLSTPAKVSHFNNDSVKMVACGMRHSLVLFAGNQVCGFGSGKRGQLGFSSDRIKSVNLPCVVSGLKDVEVVRISANGDHSAAISADGQFFSWGRGFCGGPDVHAPQSLPSPLSFREVAVGWNHALLLTVDGEVFKLGSTLNKQPEKQQLQIDSSEALFEKVPDFDGVKVMQIAAGAEHSAAVTENGEVKTWGWGEHGQLGLGNTNDQTSPELVSLGSIDLRTKEIKVYCGSGFTYAVKRKQELSPTSS”, the “soluble on expression in E. coli” value was “soluble”.

For “GMTKPKEPTALDLPMADPLPDETQKYFEICQEKLGMVPNVLKAYAFNVEKLNAFTAMYNDLMLGESQLSKLEREMIAVVVSSINKCFYCLVAHGAAVRQLSGDPQLGEMLVMNYRVAPLDARQRVMLDFAAKMTRASAEIEEADREVLRSHGFNDRDIWDIANVTGFFNMTNRVASATAMMPNAEYHGQFR”, the “soluble on expression in E. coli” value was “soluble”.

Consider “MAKESVKILQGKLDVKSLIDQLNAALSEEWLAYYQYWVGALVVEGAMRADVQGEFEEHAEEERHHAQLIADRIIELEGVPVLDPKKWFELARCKYDSPTAFDSVSLLNQNVSSERCAILRYQEIANFTNGKDYTTCDIAKHILAEEEEHEQDLQDYLTDIARMKESFLKK”, for which the “soluble on expression in E. coli” value is given as “soluble”.

With “MALNTNQLFAYLNRGDIAEFKFSPLFTTLFFPNVATFSTQNIMLDTLDIEEVTMSAFCSPMVGSQVQRDKGYETSTIKPGYMKPKHEIDPTKTIMRMAGEDPAQLNDPTYRRMRLITGNMRRQINAIKARVEWLAVNAVTTGKNIIEGEGIERYEIDWKIPEKNIIEQADGKKWSEQDKETHYPIYDIELYADQAGCPANVMIMGAEVWRTLRSFKKFRELYDLSRGSESAAELACKNLGEVVSFKGYLGDLALIVYSGKYTDSDGTEKYFLEPDLLVLGNTNNKGLVAYGAIMDQEAVRTGATQNMFYPKNWIEDGDPAIEYVQTHSAPQPVPADIRKFVTVKIA”, the “soluble on expression in E. coli” value is recorded as “not soluble”.

In the case of “SHSKLRIKKEIEPIVSALTFLSQGQSAALNEKGNFSEIKTALNETSHILEESNMMKEQWIRGVSHDLRNPLMLISGYTSQLEQQYGHGKQTEQIENQIQNMKEMISNLNLSYLLDNQKRHSKFSSLDLAVVLRSVIADILNNYETVILHFDLPTEAVLVKGDATLLERAFRNLLLNSIKHSGSNQIDLTYQLFDNKVIIIIADKGTITAQKIVELNQKSTNYESHGMGTVITKQIIKLHQGETVFSDNHPGLKVTIVLPVTDEF”, the “soluble on expression in E. coli” value is reported as “not soluble”.

With “AENAKIKFDGVDVERDSNVINDLVPNVTLSLKKPSSDMVEAKIEPDYEGIKRVLLDFIGAYNEVLAEINIVSSNEDQPNNQKSNIVEELTYLSDSQKEEAYKNLGILRSEFLLKNLKSKLESIIFKPYVTSDPNFSIINQMGVFTNSISSSGGLSRYLRLDEKKFDESIRNNIDNVRELFLYDLNGDRVYDNGIAKMLGDCLSPLVASGGVIYNKIKNYDLKIFNQKNKVEDYKKKYEDRERKVEGELNTLDFTVKRMKD”, the “soluble on expression in E. coli” value is “not soluble”.

On to “MAHHHHHHMASADVVSTWVCPICMVSNETQGEFTKDTLPTPICINCGVPADYELTKSSINCSNAIDPNANPRNQFG”, for which the “soluble on expression in E. coli” value is reported as “soluble”.

As for “MGSDKIHHHHHHMFETITPESIKENILNELALVDVREGSYTNNLVSPTALAIWKLYDSLNALIPMVYVDETSGVYIDKKAAHYGITRKSGTKATAVLHFTGVDGKVVPKGTVFLTGDGLEFVTESAVTITAGAARTTAIAAEAGEAYNVPGGSITQQIVSISGLTGVTNDAAVGGTDPESDKSLVERLYAYLRKPATSGNVYHYEQWALAVDGVGGVKVAPLWNGPGTVKVLIVSPAKAPVDQEVVTRCADHIQQNRPIGAAVTVESASALMINVEATITIESTTTKSAVKEAFANSLNAYLQSIAFEKYELIYNRLAFMLLDIEGVIDYEDLTVNGGTSNITIAANEVPVAGMVVIS”, the “soluble on expression in E. coli” value is on record as “not soluble”.

On to “MADRDATLWASHEKMLSQPLKDSDAEVYSIIKKESNRQRVGLELIASENFASRAVLEALGSSLNNKYSEGYPGQRYYGGTEFIDELEMLCQKRALQAYHLDPQCWGVNVQPYSGSPANFAVYTALVEPHGRIMGLDLPDGGHLTHGFMTDKKKISATSIFFESMPYKVYPETGYINYDQLEENASLFHPKLIIAGTSCYSRNLDYARLRKIADDNGAYLMADMAHISGLVAAGVVPSPFEHCHVVTTTTHKTLRGCRAGMIFYRKGVRSVDPKTGKETYYELESLINSAVFPGLQGGPHNHAIAGVAVALKQAMTTEFKIYQLQVLANCRALSDALTELGYKIVTGGSDNHLILMDLRSKGTDGGRAEKVLEACSIACNKNTCPGDKSALRPSGLRLGTPALTSRGLLEEDFQKVAHFIHRGIELTLQIQSHMATKATLKEFKEKLAGDEKIQSAVATLREEVENFASNFSLPGLPDF”, for which the “soluble on expression in E. coli” value was “soluble”.

Consider “MSRFSITYKHDFYGGVEGEVTGGSALLCCPQEDIKSFLSEPVYSRLCASAWALTIECPSDPRTPSGTPGPLGTVPWRWGSLGMGGPLLPTAPTPRERERRGGQPAQRWSAEEGQEGSADGEAEATQELILAVVQEGAEGQCQGQGRKLLLQRGAHDPVTVHRAFKKEVGLGQVQLIPKGGTGVLHPGAGLKLHTHLQLVTGFVVIRRMHACLAQRYCSQPVVQCVFPS”, for which the “soluble on expression in E. coli” value was “not soluble”.

For “MSDEQIDKLVSRLDGALNRLGNVKKDHPLESSSNSKPTHQPKSPAPYRQKIEKLSAEVVDSNPYSRLMALQRMGIVNEYERIREKTVAVVGVGGVGSVVAEMLTRCGIGKLILFDYDKVEIANMNRLFYQPNQAGLSKVEAARDTLIHVNPDVQIEVHNFNITTMDNFDTFVNRIRKGSLTDGKIDLVLSCVDNFEARMAVNMACNEENQIWMESGVSENAVSGHIQYIEPGKTACFACVPPLVVASGIDERTLKRDGVCAASLPTTMAVVAGFLVMNTLKYLLNFGEVSQYVGYNALSDFFPRDSIKPNPYCDDSHCLQRQKEYEEKVANQPVDLEVEVPEEETVVHEDNEWGIELVNESEPSAEQSSSLNAGTGLKFAYEPIKRDAQTELSPAQAATHDFMKSIKDKLVEEAQNKGK”, the “soluble on expression in E. coli” value was “not soluble”.

In the case of “MKHLTASEVRSTFINFFREKKEHTYVHSSSVIPHDDPTLLFANAGMNQFKPLFLGIADPNSDLAKLKRAVNTQKCIRAGGKHNDLDDVGKDVYHHTYFEMLGNWSFGDYFKKEIITWAWELLTTVYGIPAERLYVSVFGGDEANGVPADSEARDIWRSVGVPDERILNFGMKDNFWEMGDVGPCGPCSEIHYDRIGNRDASHLVNADDPMVVEIWNLVFIQFNREEGGVLKPLPAKHIDCGLGLERLIAVMQDKTSNYDTDIFQPIFEAIHKGSGVRAYTGFIGDEDKDGVDMAYRVVADHVRTLTIALSDGGRPDNSGRGYVLRRILRRGVRYASEKLNAQPGFFASLVPVVISILGETFPELSRDPVTVMDIINDEEKQFLKTLSRGRVLFQRAVQSLPEGTMTFPGDVSWRLYDTYGFPADLTQLMAEEKGLSVDNTAFEEARRKAIETSSAGTGKFRDTLDLDVHALAELQQKGVPTTDDSPKYAYTFTGEGSDAVYKFEPCVGKILAIRRDGKFVDQLAAGEEGAILLDRTNFYAEQGGQIYDVGVLTKVNDESNEFNVSNCQVRGGYIVLVGSAEGSFSVGDQVNERFDEDRKQLIMKNHTGTHVLNYALRKVLADSDQKGSLVAPDRMRFDFTNKAGMTVQQVKKAEEYAQQLIDTKGQVYAKNSPLGEAKKVKGLRAMFDETYPDPVRVVAVGTPVEQLLQNPDAEEGQNTTVEFCGGTHLQNVSHIGRIVIASEEAIAKGIRRIVALTGPEAERAIARADRLTARLEEESKHADKKDELLANKDKFKALQKKIQEIVDEANGAQLPYWRKDSIREKAKAIQKTLDGYTKAQQAAVAEKVLGEAKELAAVAEQPTVLVHVFAANANSKAIDNALKLLKDTKAVMAFSVNEDSGKVLCLAKVDKSLVSNGLKANEWVNEVCTVLGGKGGGKDANAQLTGENVDKLDAAVELAQKFALAAIN”, the “soluble on expression in E. coli” value is “soluble”.

Consider “QTITIKGQVLDEKKQPVSYASVVISTDSLSKKDISYAVTDEHGQFRIGQLSAIPDKRWIHVRSIGYLGFHKQISLRAVKSPLDITLTEDTKELEEVVVVARARDAYAKGDTIVFNSKNYTLGNERNLGDVVKKMPGMEVDQTGNISYQGKKIGKVLVDGQDILSSSSGVAMNTLPPDFANSIELLSNYTDGDIAHAFKAEEQLALNLKSNKKVALSGSFEGGGGLKDKFISKASLITVLPKISASTIINANNTGEAVFSIQDYMSNIIDFESIRSGASTQTSLSLSPEEQQLLLPPTNEHARTAGLANINISWTPHSSYKLRASTLFNKGKSEGAHTKTDTYTLPENYFTNISTGTADKETQLVSQYLSQKWIPSRFFSVSAKTKIDIRNHNADNIYANTFNDNHIHALEKPKNHFSGIKQDIEMKWLLSKGLLFGGGSFVFNKGKINSDIYTDVLLLPLPHINGNSIYPYFHEHIKKDMEKGFNAYVGGMYPVLNNIYLRGEFSMSMNWNELKMAYPTSINEETADLRVFRPYISLMKNKGVFRFNIGSYFSSYRQKTSPELLREKSLFYIEPHASIELVMSNQHRLMLSVSEAVSPSTIDYFSQQILAKGYNNLQLPSKLSNPFAKRFKGNLSYAYFSLFNRLSMYGNLSYIKDRDTHITVTTSKGLLISNFYQDGGWSNTLRTNAYLSKGIGTLPLDIKLSGKYTLSKHNLMRVDKEDELINKRVDAKLDLISRLYQSPVNFEIGVRFSRLDQKFTYSNIHSWNQE”, for which the “soluble on expression in E. coli” value is recorded as “not soluble”.

Take “MNEKVFRDPVHTYIHVNNQVIYDLINTKEFQRLRRIKQTSTTSFTFHGAEHS”: the “soluble on expression in E. coli” value is “not soluble”.
